Ends that are not written are not given here. * marks the point of attachment. Palmitoyl = CCCCCCCCCCCCCCCC(=O)*
B1: CXCR4 i2 loop compound 76 (peptide)
peptide: DRYLAIVHATNSQRPRKLL-NH2
modifications: not fully specified (N-terminus); also: second lipid on tether backbone (C31H62NC(O)- tether)
B2: CXCR4 i2 loop compound 80 (peptide)
peptide: Palmitoyl-HATNSQRPRKLLA-NH2
SMILES: CCCCCCCCCCCCCCCC(=O)N[C@@H](Cc1c[nH]cn1)C(=O)N[C@@H](C)C(=O)N[C@H](C(=O)N[C@@H](CC(N)=O)C(=O)N[C@@H](CO)C(=O)N[C@@H](CCC(N)=O)C(=O)N[C@@H](CCCNC(=N)N)C(=O)N1CCC[C@H]1C(=O)N[C@@H](CCCNC(=N)N)C(=O)N[C@@H](CCCCN)C(=O)N[C@@H](CC(C)C)C(=O)N[C@@H](CC(C)C)C(=O)N[C@@H](C)C(N)=O)[C@@H](C)O
B3: CXCR4 i2 loop compound 78 (peptide)
peptide: Palmitoyl-VHATNSQRPRKLLA-NH2
SMILES: CCCCCCCCCCCCCCCC(=O)N[C@H](C(=O)N[C@@H](Cc1c[nH]cn1)C(=O)N[C@@H](C)C(=O)N[C@H](C(=O)N[C@@H](CC(N)=O)C(=O)N[C@@H](CO)C(=O)N[C@@H](CCC(N)=O)C(=O)N[C@@H](CCCNC(=N)N)C(=O)N1CCC[C@H]1C(=O)N[C@@H](CCCNC(=N)N)C(=O)N[C@@H](CCCCN)C(=O)N[C@@H](CC(C)C)C(=O)N[C@@H](CC(C)C)C(=O)N[C@@H](C)C(N)=O)[C@@H](C)O)C(C)C
B4: CXCR4 i2 loop compound 79 (peptide)
peptide: Palmitoyl-HATNSQRPRKL-NH2
SMILES: CCCCCCCCCCCCCCCC(=O)N[C@@H](Cc1c[nH]cn1)C(=O)N[C@@H](C)C(=O)N[C@H](C(=O)N[C@@H](CC(N)=O)C(=O)N[C@@H](CO)C(=O)N[C@@H](CCC(N)=O)C(=O)N[C@@H](CCCNC(=N)N)C(=O)N1CCC[C@H]1C(=O)N[C@@H](CCCNC(=N)N)C(=O)N[C@@H](CCCCN)C(=O)N[C@@H](CC(C)C)C(N)=O)[C@@H](C)O

biological target: CXCR4 receptor (human, UniProt P61073 1-352); assay: cell-based or functional assay
Sequence (P61073 whole entry): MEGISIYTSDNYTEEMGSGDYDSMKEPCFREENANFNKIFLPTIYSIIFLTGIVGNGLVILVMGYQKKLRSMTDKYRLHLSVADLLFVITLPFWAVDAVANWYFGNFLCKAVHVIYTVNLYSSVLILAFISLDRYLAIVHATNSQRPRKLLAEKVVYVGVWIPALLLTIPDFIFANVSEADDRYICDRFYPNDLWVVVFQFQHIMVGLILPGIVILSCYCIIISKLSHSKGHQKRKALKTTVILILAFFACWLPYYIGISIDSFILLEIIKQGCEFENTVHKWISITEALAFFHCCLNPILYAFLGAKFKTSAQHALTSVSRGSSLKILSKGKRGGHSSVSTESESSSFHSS

Going from B1 to B2, the “Peak Ratio, chemotaxis, SUPB-15, 1.0 uM” value falls from 1 to 0.2.

B3 and B4 are the same in “Peak Ratio, chemotaxis, SUPB-15, 1.0 uM” value: 0.2 for the first, 0.2 for the second.

First: B2
Second: B3
The “AUC (% of vehicle), chemotaxis, SUPB-15, 1.0 uM” value of the first is higher: 102 % of vehicle for the first, 71.8 % of vehicle for the second.

With B4 the “AUC (% of vehicle), chemotaxis, SUPB-15, 1.0 uM” value was 109 % of vehicle.

Compared with B2, B3 is higher in “Max (% of vehicle), chemotaxis, SUPB-15, 1.0 uM” value: 69 % of vehicle for the first, 72.3 % of vehicle for the second.

For B4, the “Max (% of vehicle), chemotaxis, SUPB-15, 1.0 uM” value was 110 % of vehicle.

From patent US20130210709A1 (ANCHOR THERAPEUTICS, published 2013)
